Test results published in article PMC10097714, “ALS-linked TDP-43 mutations interfere with the recruitment of RNA recognition motifs to G-quadruplex RNA”.

Legend:
[1] = target: His-tagged RRM segment of TDP-43 (101-261aa) (UniProt Q13148); assay: GST pull-down (glutathione sepharose beads) with western blotting, band quantification; settings: three experiments, parent: est. 1.0, read off a plot
[2] = target: T1, GST-RRM (human, UniProt Q13148 101-261); assay: EMSA (agarose); EMSA: 20 mM PIPES-NaOH pH 6.8, 150 mM NaCl, 0.8 mM MgCl2, 10% glycerol, 0.1 mg/ml BSA, 0.1 mg/ml poly-dI-dC, 25 C, gel 0.5x TBE pH 6.8; SPR: 20 mM PIPES pH 6.8, 12 mM KCl, 0.8 mM MgCl2, 150 mM NaCl, 0.05% Tween-20, 25 C; UV cross-linking: EMSA buffer without poly-dI-dC; pull-down: PIPES pH 6.8, 145 mM NaCl, 5.4 mM KCl, 0.8 mM MgCl2, 1.8 mM CaCl2, 0.05% Tween-20, 10% glycerol, 4 C; settings: protein: recombinant; tags: GST; label: 3' Alexa Fluor 647
[3] = target: T2, TDP-43 WT full-length (human, UniProt Q13148 1-414); assay: EMSA (agarose); up to 10x protein; EMSA: 20 mM PIPES-NaOH pH 6.8, 150 mM NaCl, 0.8 mM MgCl2, 10% glycerol, 0.1 mg/ml BSA, 0.1 mg/ml poly-dI-dC, 25 C, gel 0.5x TBE pH 6.8; SPR: 20 mM PIPES pH 6.8, 12 mM KCl, 0.8 mM MgCl2, 150 mM NaCl, 0.05% Tween-20, 25 C; UV cross-linking: EMSA buffer without poly-dI-dC; pull-down: PIPES pH 6.8, 145 mM NaCl, 5.4 mM KCl, 0.8 mM MgCl2, 1.8 mM CaCl2, 0.05% Tween-20, 10% glycerol, 4 C; settings: protein: recombinant; tags: untagged; chain copies: 2; label: 3' Alexa Fluor 647
[4] = target: T1, GST-RRM; assay: EMSA (agarose); higher affinity than CaMKIIa G4; EMSA: 20 mM PIPES-NaOH pH 6.8, 150 mM NaCl, 0.8 mM MgCl2, 10% glycerol, 0.1 mg/ml BSA, 0.1 mg/ml poly-dI-dC, 25 C, gel 0.5x TBE pH 6.8; SPR: 20 mM PIPES pH 6.8, 12 mM KCl, 0.8 mM MgCl2, 150 mM NaCl, 0.05% Tween-20, 25 C; UV cross-linking: EMSA buffer without poly-dI-dC; pull-down: PIPES pH 6.8, 145 mM NaCl, 5.4 mM KCl, 0.8 mM MgCl2, 1.8 mM CaCl2, 0.05% Tween-20, 10% …; settings: protein: recombinant; tags: GST; label: 5' Cy3, 3' Alexa Fluor 647; parallel G4, A loop
[5] = target: T2, TDP-43 WT full-length; assay: EMSA (agarose); EMSA: 20 mM PIPES-NaOH pH 6.8, 150 mM NaCl, 0.8 mM MgCl2, 10% glycerol, 0.1 mg/ml BSA, 0.1 mg/ml poly-dI-dC, 25 C, gel 0.5x TBE pH 6.8; SPR: 20 mM PIPES pH 6.8, 12 mM KCl, 0.8 mM MgCl2, 150 mM NaCl, 0.05% Tween-20, 25 C; UV cross-linking: EMSA buffer without poly-dI-dC; pull-down: PIPES pH 6.8, 145 mM NaCl, 5.4 mM KCl, 0.8 mM MgCl2, 1.8 mM CaCl2, 0.05% Tween-20, 10% glycerol, 4 C; settings: protein: recombinant; tags: untagged; chain copies: 2; label: 5' Cy3, 3' Alexa Fluor 647; parallel G4, A loop
[6] = target: T2, TDP-43 WT full-length; assay: EMSA (agarose); lower affinity than PSD-95 G4; EMSA: 20 mM PIPES-NaOH pH 6.8, 150 mM NaCl, 0.8 mM MgCl2, 10% glycerol, 0.1 mg/ml BSA, 0.1 mg/ml poly-dI-dC, 25 C, gel 0.5x TBE pH 6.8; SPR: 20 mM PIPES pH 6.8, 12 mM KCl, 0.8 mM MgCl2, 150 mM NaCl, 0.05% Tween-20, 25 C; UV cross-linking: EMSA buffer without poly-dI-dC; pull-down: PIPES pH 6.8, 145 mM NaCl, 5.4 mM KCl, 0.8 mM MgCl2, 1.8 mM CaCl2, 0.05% Tween-20, 10% …; settings: protein: recombinant; tags: untagged; chain copies: 2; label: 5' Cy3, 3' Alexa Fluor 647; parallel G4
[7] = target: T1, GST-RRM; assay: as above; settings: protein: recombinant; tags: GST; label: 5' Cy3, 3' Alexa Fluor 647; parallel G4

## GST-fused wild-type glycine-rich (GR) segment of TDP-43 M337V
[1]; + CaMKIIα G4 RNA
  ratio to parent: 0.26
[1]; + PSD-95 G4 RNA
  ratio to parent: 0.2

## GST-fused wild-type glycine-rich (GR) segment of TDP-43 G287S
[1]; + CaMKIIα G4 RNA
  ratio to parent: 0.52
[1]; + PSD-95 G4 RNA
  ratio to parent: 0.31

## UGUGUGUGUGUGUGUGUGUG (ssRNA) [UG10-Ax647]
[2]
  binding result: binds
[3]
  binding result: no binding

## GGGGAAAAGGGAGGGAUGGG (structured_RNA) [Cy3-PSD-Ax647]
[4]
  binding result: binds
[5]
  binding result: binds

## UGGGGGGGGCGGGUGGGA (structured_RNA) [Cy3-CaMKII-Ax647]
[6]
  binding result: binds
[7]
  binding result: binds
